# Results published in publication PMC4390240 (PLoS ONE, 2015).
# “And” between values parts separate entries of the source, which are not always exact repeats. Identical values can stand only once.
# Tests used:
# [1] = target: the molecule itself; experiment: differential scanning calorimetry; oxidized dimer, 100 μM (heme unit), scan rate 1°C/min, 50 mM potassium phosphate buffer, pH 7.0; dimer to monomers
# [2] = target: the molecule itself; experiment: SEC; gel chromatography (Superdex 75) at 4°C in 50 mM potassium phosphate buffer, pH 7.0, after addition of 80% (v/v) ethanol to 1 mM oxidized monomeric protein, lyophilization and resolvation with buffer
protein,measurement,setting,value
"Pseudomonas aeruginosa cytochrome c 551, wild type (natural protein, UniProt P00099 23-104, looked up, heme attached covalently to two Cys residues (heme-linked Cys12 and Cys15); His16 and Met61 coordinated to the heme iron; oxidized, residues printed from Glu1; source: E. coli JCB387, purified (oxidized)) EDPEVLFKNKGCVACHAIDTKMVGPAYKDVAAKFAGQAGAEAELAQRIKNGSQGVWGPIPMPPNAVSDDEAQTLAKWVLSQK",dH of dissociation of the dimer to monomers,[1],~0 kcal/mol
same,stoichiometry N,[2],2 and 3 and 4
